{"source": "patent US20260207732A1", "key": {"[1]": {"molecular_target": "control (H1 Bri18 wild type HA ectodomain-foldon) (Influenza A virus A/Brisbane/02/2018 (H1N1))", "assay": "BLI (Octet) after 7D37C and trypsin; HA on Ni-NTA tips"}, "[2]": {"molecular_target": "control (H1 Bri18 wild type HA ectodomain-foldon) (Influenza A virus A/Brisbane/02/2018 (H1N1))", "assay": "BLI (Octet), HA-foldon-His on Ni-NTA tips, IgG in solution"}}, "data": [{"substance": "CR9114 monoclonal antibody (IgG)", "values": [{"measurement": "Octet response (nm)", "setting": "[1]", "value": 0.693, "unit": "nm"}, {"measurement": "Octet response (nm)", "setting": "[2]", "value": 0.826, "unit": "nm"}]}, {"substance": "FI6v3 monoclonal antibody (IgG)", "values": [{"measurement": "Octet response (nm)", "setting": "[1]", "value": 0.697, "unit": "nm"}, {"measurement": "Octet response (nm)", "setting": "[2]", "value": 0.856, "unit": "nm"}]}]}
